Sequences and labels used below:
T1: human GIP receptor (human, UniProt P48546 22-466)
T1 sequence (looked up): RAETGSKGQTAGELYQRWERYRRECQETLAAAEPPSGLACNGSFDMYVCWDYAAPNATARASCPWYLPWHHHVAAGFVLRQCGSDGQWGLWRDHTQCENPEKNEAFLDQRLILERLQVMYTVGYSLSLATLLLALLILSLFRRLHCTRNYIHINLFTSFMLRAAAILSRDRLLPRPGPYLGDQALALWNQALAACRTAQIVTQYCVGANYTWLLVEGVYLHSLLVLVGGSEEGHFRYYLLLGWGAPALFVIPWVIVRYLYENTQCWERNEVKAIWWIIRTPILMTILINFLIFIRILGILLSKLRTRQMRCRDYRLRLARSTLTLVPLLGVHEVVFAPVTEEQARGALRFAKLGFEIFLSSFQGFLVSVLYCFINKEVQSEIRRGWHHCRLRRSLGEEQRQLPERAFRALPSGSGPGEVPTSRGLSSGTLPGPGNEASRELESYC

B1: AT384 (peptide)
peptide: SGTFISDYSIAMDRIK([AEEA-AEEA-γGlu-C18 diacid])QQDFVNWLLAQR-NH2
modifications: N-terminus assumed
SMILES: CC[C@H](C)[C@H](NC(=O)[C@H](CO)NC(=O)[C@H](Cc1ccc(O)cc1)NC(=O)[C@H](CC(=O)O)NC(=O)[C@H](CO)NC(=O)[C@@H](NC(=O)[C@H](Cc1ccccc1)NC(=O)[C@@H](NC(=O)CNC(=O)[C@@H](N)CO)[C@@H](C)O)[C@@H](C)CC)C(=O)N[C@@H](C)C(=O)N[C@@H](CCSC)C(=O)N[C@@H](CC(=O)O)C(=O)N[C@@H](CCCNC(=N)N)C(=O)N[C@H](C(=O)N[C@@H](CCCCNC(=O)COCCOCCNC(=O)COCCOCCNC(=O)CC[C@H](NC(=O)CCCCCCCCCCCCCCCCC(=O)O)C(=O)O)C(=O)N[C@@H](CCC(N)=O)C(=O)N[C@@H](CCC(N)=O)C(=O)N[C@@H](CC(=O)O)C(=O)N[C@@H](Cc1ccccc1)C(=O)N[C@H](C(=O)N[C@@H](CC(N)=O)C(=O)N[C@@H](Cc1c[nH]c2ccccc12)C(=O)N[C@@H](CC(C)C)C(=O)N[C@@H](CC(C)C)C(=O)N[C@@H](C)C(=O)N[C@@H](CCC(N)=O)C(=O)N[C@@H](CCCNC(=N)N)C(N)=O)C(C)C)[C@@H](C)CC
B2: AT383 (peptide)
peptide: SGTFISDYSIAMDRIK([AEEA-AEEA-AEEA-γGlu-C16 diacid])QQDFVNWLLAQR-NH2
modifications: N-terminus assumed
SMILES: CC[C@H](C)[C@H](NC(=O)[C@H](CO)NC(=O)[C@H](Cc1ccc(O)cc1)NC(=O)[C@H](CC(=O)O)NC(=O)[C@H](CO)NC(=O)[C@@H](NC(=O)[C@H](Cc1ccccc1)NC(=O)[C@@H](NC(=O)CNC(=O)[C@@H](N)CO)[C@@H](C)O)[C@@H](C)CC)C(=O)N[C@@H](C)C(=O)N[C@@H](CCSC)C(=O)N[C@@H](CC(=O)O)C(=O)N[C@@H](CCCNC(=N)N)C(=O)N[C@H](C(=O)N[C@@H](CCCCNC(=O)COCCOCCNC(=O)COCCOCCNC(=O)COCCOCCNC(=O)CC[C@H](NC(=O)CCCCCCCCCCCCCCC(=O)O)C(=O)O)C(=O)N[C@@H](CCC(N)=O)C(=O)N[C@@H](CCC(N)=O)C(=O)N[C@@H](CC(=O)O)C(=O)N[C@@H](Cc1ccccc1)C(=O)N[C@H](C(=O)N[C@@H](CC(N)=O)C(=O)N[C@@H](Cc1c[nH]c2ccccc12)C(=O)N[C@@H](CC(C)C)C(=O)N[C@@H](CC(C)C)C(=O)N[C@@H](C)C(=O)N[C@@H](CCC(N)=O)C(=O)N[C@@H](CCCNC(=N)N)C(N)=O)C(C)C)[C@@H](C)CC
B3: AT393 (peptide)
peptide: SGTFISDYSIAMDRIK(C18 diacid)QQDFVNWLLAQR-NH2
modifications: N-terminus assumed
SMILES: CC[C@H](C)[C@H](NC(=O)[C@H](CO)NC(=O)[C@H](Cc1ccc(O)cc1)NC(=O)[C@H](CC(=O)O)NC(=O)[C@H](CO)NC(=O)[C@@H](NC(=O)[C@H](Cc1ccccc1)NC(=O)[C@@H](NC(=O)CNC(=O)[C@@H](N)CO)[C@@H](C)O)[C@@H](C)CC)C(=O)N[C@@H](C)C(=O)N[C@@H](CCSC)C(=O)N[C@@H](CC(=O)O)C(=O)N[C@@H](CCCNC(=N)N)C(=O)N[C@H](C(=O)N[C@@H](CCCCNC(=O)CCCCCCCCCCCCCCCCC(=O)O)C(=O)N[C@@H](CCC(N)=O)C(=O)N[C@@H](CCC(N)=O)C(=O)N[C@@H](CC(=O)O)C(=O)N[C@@H](Cc1ccccc1)C(=O)N[C@H](C(=O)N[C@@H](CC(N)=O)C(=O)N[C@@H](Cc1c[nH]c2ccccc12)C(=O)N[C@@H](CC(C)C)C(=O)N[C@@H](CC(C)C)C(=O)N[C@@H](C)C(=O)N[C@@H](CCC(N)=O)C(=O)N[C@@H](CCCNC(=N)N)C(N)=O)C(C)C)[C@@H](C)CC
B4: AT354 (peptide)
peptide: ISDYSIAMDKIK(C16 diacid)QQDFVNWLLAQK-NH2
modifications: N-terminus assumed
SMILES: CC[C@H](C)[C@H](N)C(=O)N[C@@H](CO)C(=O)N[C@@H](CC(=O)O)C(=O)N[C@@H](Cc1ccc(O)cc1)C(=O)N[C@@H](CO)C(=O)N[C@H](C(=O)N[C@@H](C)C(=O)N[C@@H](CCSC)C(=O)N[C@@H](CC(=O)O)C(=O)N[C@@H](CCCCN)C(=O)N[C@H](C(=O)N[C@@H](CCCCNC(=O)CCCCCCCCCCCCCCC(=O)O)C(=O)N[C@@H](CCC(N)=O)C(=O)N[C@@H](CCC(N)=O)C(=O)N[C@@H](CC(=O)O)C(=O)N[C@@H](Cc1ccccc1)C(=O)N[C@H](C(=O)N[C@@H](CC(N)=O)C(=O)N[C@@H](Cc1c[nH]c2ccccc12)C(=O)N[C@@H](CC(C)C)C(=O)N[C@@H](CC(C)C)C(=O)N[C@@H](C)C(=O)N[C@@H](CCC(N)=O)C(=O)N[C@@H](CCCCN)C(N)=O)C(C)C)[C@@H](C)CC)[C@@H](C)CC
B5: AT385 (peptide)
peptide: SGTFISDYSIAMDRIK([AEEA-AEEA-AEEA-γGlu-C18 diacid])QQDFVNWLLAQR-NH2
modifications: N-terminus assumed
SMILES: CC[C@H](C)[C@H](NC(=O)[C@H](CO)NC(=O)[C@H](Cc1ccc(O)cc1)NC(=O)[C@H](CC(=O)O)NC(=O)[C@H](CO)NC(=O)[C@@H](NC(=O)[C@H](Cc1ccccc1)NC(=O)[C@@H](NC(=O)CNC(=O)[C@@H](N)CO)[C@@H](C)O)[C@@H](C)CC)C(=O)N[C@@H](C)C(=O)N[C@@H](CCSC)C(=O)N[C@@H](CC(=O)O)C(=O)N[C@@H](CCCNC(=N)N)C(=O)N[C@H](C(=O)N[C@@H](CCCCNC(=O)COCCOCCNC(=O)COCCOCCNC(=O)COCCOCCNC(=O)CC[C@H](NC(=O)CCCCCCCCCCCCCCCCC(=O)O)C(=O)O)C(=O)N[C@@H](CCC(N)=O)C(=O)N[C@@H](CCC(N)=O)C(=O)N[C@@H](CC(=O)O)C(=O)N[C@@H](Cc1ccccc1)C(=O)N[C@H](C(=O)N[C@@H](CC(N)=O)C(=O)N[C@@H](Cc1c[nH]c2ccccc12)C(=O)N[C@@H](CC(C)C)C(=O)N[C@@H](CC(C)C)C(=O)N[C@@H](C)C(=O)N[C@@H](CCC(N)=O)C(=O)N[C@@H](CCCNC(=N)N)C(N)=O)C(C)C)[C@@H](C)CC
B6: AT355 (peptide)
peptide: SDYSIAMDKIK(C16 diacid)QQDFVNWLLAQK-NH2
modifications: N-terminus assumed
SMILES: CC[C@H](C)[C@H](NC(=O)[C@H](CO)NC(=O)[C@H](Cc1ccc(O)cc1)NC(=O)[C@H](CC(=O)O)NC(=O)[C@@H](N)CO)C(=O)N[C@@H](C)C(=O)N[C@@H](CCSC)C(=O)N[C@@H](CC(=O)O)C(=O)N[C@@H](CCCCN)C(=O)N[C@H](C(=O)N[C@@H](CCCCNC(=O)CCCCCCCCCCCCCCC(=O)O)C(=O)N[C@@H](CCC(N)=O)C(=O)N[C@@H](CCC(N)=O)C(=O)N[C@@H](CC(=O)O)C(=O)N[C@@H](Cc1ccccc1)C(=O)N[C@H](C(=O)N[C@@H](CC(N)=O)C(=O)N[C@@H](Cc1c[nH]c2ccccc12)C(=O)N[C@@H](CC(C)C)C(=O)N[C@@H](CC(C)C)C(=O)N[C@@H](C)C(=O)N[C@@H](CCC(N)=O)C(=O)N[C@@H](CCCCN)C(N)=O)C(C)C)[C@@H](C)CC

*1 amine or outer side, *2 acyl side, *3 side chain or, on linkers, in order; H or OH if unused. Where no end group is shown, it is not given here. Side-chain parts run from the residue outwards. The star is where a group is joined. C18 diacid = O=C(O)CCCCCCCCCCCCCCCCC(=O)*; C16 diacid = O=C(O)CCCCCCCCCCCCCCC(=O)*; γGlu = O=C(O)[C@H](CCC(=O)[*:2])N[*:1]; AEEA = NCCOCCOCC(=O)O

The first test deals with T1, human GIP receptor. Put plainly: cell-based or functional assay.
For the molecule B1, the “CisBio cAMP agonism % Efficacy” value amounted to 0%, the “CisBio cAMP antagonism % inhib” value worked out at 97%, the “CisBio cAMP antagonism IC50” value was determined as 54.1 nM and the “CisBio cAMP antagonism pIC50” value turned out to be 7.3. The “DiscoveRx cAMP antagonism % inhib” value worked out at 100%, the “DiscoveRx cAMP antagonism IC50” value is 8 nM and the “DiscoveRx cAMP antagonism log IC50” value was -8.1 log M.
For B2, the “CisBio cAMP agonism % Efficacy” value was determined as 0%, the “CisBio cAMP antagonism % inhib” value turned out to be 89%, the “CisBio cAMP antagonism IC50” value came out at 12.6 nM and the “CisBio cAMP antagonism pIC50” value stood at 7.9. Also, the “DiscoveRx cAMP antagonism % inhib” value amounted to 100%, the “DiscoveRx cAMP antagonism IC50” value came to 1 nM and the “DiscoveRx cAMP antagonism log IC50” value is -8.9 log M.
Consider B3, for which the “CisBio cAMP agonism % Efficacy” value worked out at 6%, the “CisBio cAMP antagonism % inhib” value was 78%, the “CisBio cAMP antagonism IC50” value is 33.5 nM and the “CisBio cAMP antagonism pIC50” value came out at 7.5. The “DiscoveRx cAMP antagonism % inhib” value came to 100%, the “DiscoveRx cAMP antagonism IC50” value was found to be 1 nM and the “DiscoveRx cAMP antagonism log IC50” value was -8.9 log M.
As for B4, the “CisBio cAMP agonism % Efficacy” value was found to be 0%, the “CisBio cAMP antagonism % inhib” value amounted to 91%, the “CisBio cAMP antagonism IC50” value was 108 nM and the “CisBio cAMP antagonism pIC50” value turned out to be 7.
With B5, the “CisBio cAMP agonism % Efficacy” value amounted to 3%, the “CisBio cAMP antagonism % inhib” value stood at 70%, the “CisBio cAMP antagonism IC50” value amounted to 43 nM and the “CisBio cAMP antagonism pIC50” value came to 7.4. Further, the “DiscoveRx cAMP antagonism % inhib” value stood at 100%, the “DiscoveRx cAMP antagonism IC50” value came to 4 nM and the “DiscoveRx cAMP antagonism log IC50” value is -8.4 log M.
As for B6, the “CisBio cAMP agonism % Efficacy” value worked out at 0%, the “CisBio cAMP antagonism % inhib” value was found to be 65%, the “CisBio cAMP antagonism IC50” value worked out at 233 nM and the “CisBio cAMP antagonism pIC50” value was 6.6.

The target of another test is T1, human GIP receptor. Put plainly: cell-based or functional assay. This is another data set of the same source.
As for B4, the “cAMP antagonism % inhib” value stood at 100%, the “cAMP antagonism IC50” value worked out at 10 nM and the “cAMP antagonism log IC50” value was -8 log M.
On to B6, for which the “cAMP antagonism % inhib” value turned out to be 100%, the “cAMP antagonism IC50” value is 53 nM and the “cAMP antagonism log IC50” value was -7.3 log M.

A further test concerns the target T1, human GIP receptor. Put plainly: cell-based or functional assay. The source holds these as a separate data set.
On to B1, for which the “CisBio cAMP antagonism % inhib” value was 97%, the “CisBio cAMP antagonism IC50” value turned out to be 54.1 nM, the “cAMP antagonism % inhib” value is 100% and the “cAMP antagonism IC50” value turned out to be 8 nM.
In the same order, the values of B2 are 89%, 12.6 nM, 100% and 1 nM.
For the molecule B3, the “CisBio cAMP antagonism % inhib” value stood at 78%, the “CisBio cAMP antagonism IC50” value is 33.5 nM, the “cAMP antagonism % inhib” value is 100% and the “cAMP antagonism IC50” value was found to be 1 nM.
As for B5, the “CisBio cAMP antagonism % inhib” value was 70%, the “CisBio cAMP antagonism IC50” value was determined as 43 nM, the “cAMP antagonism % inhib” value is 100% and the “cAMP antagonism IC50” value stood at 4 nM.

For the origin of these results see patent US20220025010A1 (ANTAG THERAPEUTICS, published 2022).
